Laboratory results published in PMC3597662.

Target: T1, Cbp2Hb wild type (Hyperthermus butylicus, UniProt A2BLH2 1-103)
T1 sequence: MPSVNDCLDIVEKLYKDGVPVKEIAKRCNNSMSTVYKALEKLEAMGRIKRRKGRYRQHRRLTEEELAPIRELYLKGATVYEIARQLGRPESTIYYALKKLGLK
Experiment: NMR

B1: CRISPR-1rHb 25 bp single repeat (dsDNA)
DNA 1: CTTGCAATTCTCTTTTGAGTTGTTC
DNA 2: GAACAACTCAAAAGAGAATTGCAAG
**Q.** Does B1 bind?
**A.** Result: binds
